Literature values as cited in PMC4961565.

Target: Asp309 (UniProt position 309, LIAAPDTMSVS)
Assay: other

Cytochrome P450 19A1 (aromatase) (Homo sapiens)
pKa: 8.2
